Reference: patent US11845963B2, “HSD17B13 variants and uses thereof” (Regeneron Pharmaceuticals, Inc., priority 2017, dated 2023)
“Also recorded” adds a separate entry of the source.

Tests used:
[1] = tested on: HepG2 cells overexpressing HSD17B13 Transcript A or D or GFP; experiment: Quantification of intracellular triglyceride content in stable cell lines; assay type: cell-based, human; details: for intracellular triglyceride content of overexpressing cell lines versus GFP control: with oleic acid treatment, FIG. 10
Protocol: HepG2 cells were cultured in Eagle's Minimum Essential Medium supplemented with 10% fetal bovine serum. HSD17B13 transcripts A and D were sub-cloned into Myc-DDK backbone lentivirus constructs, and lentivirus were generated. HepG2 cells were infected with lentivirus carrying the HSD17B13 transcripts. Stable cell lines expressing each HSD17B13 transcript were selected with 1-3 mg/ml Geneticin G-418 sulfate in complete culture medium for two weeks. Following fixation, HSD17B13 isoforms were detected with mouse anti-Myc antibody. Lipid droplets were labeled with BODIPY FL dye (Sigma). Secondary antibodies for immunofluorescence were Alexa Fluor 488 donkey anti-rabbit IgG and Alexa Fluor 594 donkey anti-mouse IgG (Jackson ImmunoResearch).
The triglyceride (TG) content from the stable cells was determined using a TG quantification kit (Abcam). In the assay, TG are converted to free fatty acids and glycerol. The glycerol is then oxidized to generate a product which is quantified (spectrophotometry at λ=570 nm).

[2] = target: T1, recombinant human HSD17B13 (Homo sapiens, UniProt Q7Z5P4); experiment: Substrate screening of steroid and bioactive lipid libraries against purified recombinant HSD17B13 (NADH-Glo); assay type: biochemical; details: 265 unique putative substrates tested
T1 sequence (Q7Z5P4 20-300): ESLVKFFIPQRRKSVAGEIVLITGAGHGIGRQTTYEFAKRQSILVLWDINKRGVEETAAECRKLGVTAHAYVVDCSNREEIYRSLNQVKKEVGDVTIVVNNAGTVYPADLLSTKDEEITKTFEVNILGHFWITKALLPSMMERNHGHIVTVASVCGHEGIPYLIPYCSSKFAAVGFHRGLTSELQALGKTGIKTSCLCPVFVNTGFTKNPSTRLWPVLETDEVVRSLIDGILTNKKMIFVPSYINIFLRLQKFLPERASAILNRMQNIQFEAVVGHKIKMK
Protocol: Reactions were performed in a final volume of 40 μl of assay buffer (0.2 M Tris-HCl, pH 7.5) which contained 500 μM NAD^+, 5 μM bioactive lipid or 50 μM steroid (all in a final concentration of 5% DMSO), and 100 ng recombinant human HSD17B13. Reactions were incubated for 3 hours, at 23° C. after which an equal volume NADH-Glo Detection Reagent (Promega) was added. Following a 1 hour incubation at 23° C., the relative light units (RLUs) were measured on an Envision Plate Reader (Perkin Elmer). Raw RLU values were normalized as percent of control (50 μM estradiol) following subtraction of negative control (5% DMSO) using the following formula: Percent of control (POC)=100×(Sample (RLU)−Negative CTRLaverage)/(Positive CTRLaverage−Negative CTRLaverage).

[3] = tested on: HEK293 cells overexpressing HSD17B13 transcript A, transcript D or GFP; experiment: Cell-based conversion of estradiol to estrone in culture media, LC-MS; set-up: species or system human; details: overexpressed in HEK293 cells; FIG. 4F
Protocol: HEK293 cells overexpressing HSD17B13 transcript A, transcript D or green fluorescent protein (GFP, control) were used to investigate the activity of HSD17B13 against estradiol in a cell-based assay. Estradiol (1 μM) was fed to each cell type. After 48 hours, the media was collected and the concentration of estradiol and its converted product estrone were identified and quantified by LC-MS.

[4] = target: T2, recombinant human HSD17B13 (Homo sapiens, UniProt Q7Z5P4); experiment: In vitro enzymatic activity of purified recombinant HSD17B13 isoforms A and D (NADH production, NAD(P)H-Glo); assay type: biochemical; details: FIG. 4E
T2 construct: Transcript A, which encodes the full-length 300 amino acid protein; 10xHis (C); host or cells: E. coli
T2 sequence (Q7Z5P4 with tags, fused parts or gaps): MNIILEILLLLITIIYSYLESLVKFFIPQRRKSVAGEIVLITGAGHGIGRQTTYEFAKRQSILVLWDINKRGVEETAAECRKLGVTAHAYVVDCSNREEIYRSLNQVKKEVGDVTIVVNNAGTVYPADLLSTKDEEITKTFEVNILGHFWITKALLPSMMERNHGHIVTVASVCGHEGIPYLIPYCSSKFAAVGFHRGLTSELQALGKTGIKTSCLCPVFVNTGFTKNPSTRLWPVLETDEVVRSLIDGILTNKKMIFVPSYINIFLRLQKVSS
Protocol: Recombinant human HSD17B13 protein was purified from E. coli (Genscript) transformed with plasmid DNA harboring HSD17B13 transcript A or transcript D. The HSD17B13 variants contained a 10×His tag at the C terminus and were purified from soluble fraction using a Ni2^+ affinity purification. Enzymatic activity was determined through measurement of NADH production using the NAD(P)H-Glo Detection System (Promega). Reactions were performed for 3 hours at 25° C. in 0.2 M Tris-HCl, pH 7.5, 0.5 mM NAD^+, 75 μM of substrate (Sigma) and 500 ng purified enzyme in a final volume of 100 μL. After incubation, 20 μL of the reaction was combined with 20 μL luciferase reagent (Promega), incubated at room temperature for 1 hour and read on an Envision Plate Reader (Perkin Elmer).

## CCCCCCCC/C=C\CCCCCCCC(=O)O [oleic acid, reference compound]
[1]; increasing concentrations of oleic acid, control (GFP), HSD17B13 transcript A and D HepG2 cell lines, FIG. 10B
  triglyceride (TG) content after oleic acid treatment: increased triglyceride (TG) content to a similar extent

## CCCCC/C=C\C[C@@H](O)/C=C/C=C/C=C\[C@@H](O)CCCC(=O)O [leukotriene B4]
[2]
  identified as enzymatic substrate of HSD17B13: enzymatic substrates of HS17B13

B1: HSD17B13 isoform A: HSD17B13 protein Isoform A, SEQ ID NO:39; full-length 300 amino acid protein encoded by Transcript A (protein)
chain: MNIILEILLLLITIIYSYLESLVKFFIPQRRKSVAGEIVLITGAGHGIGRQTTYEFAKRQSILVLWDINKRGVEETAAECRKLGVTAHAYVVDCSNREEIYRSLNQVKKEVGDVTIVVNNAGTVYPADLLSTKDEEITKTFEVNILGHFWITKALLPSMMERNHGHIVTVASVCGHEGIPYLIPYCSSKFAAVGFHRGLTSELQALGKTGIKTSCLCPVFVNTGFTKNPSTRLWPVLETDEVVRSLIDGILTNKKMIFVPSYINIFLRLQKFLPERASAILNRMQNIQFEAVVGHKIKMK
modifications: homo sapien
notes: full-length 300 amino acid protein encoded by Transcript A
[3]
  conversion of estradiol (substrate) to estrone (product) measured in the culture media: showed robust conversion
[1]
  intracellular triglyceride content of overexpressing cell lines versus GFP control: No differences in intracellular triglyceride content

B2: HSD17B13 isoform D: HSD17B13 protein Isoform D, SEQ ID NO:42; prematurely truncated protein encoded by Transcript D of the rs72613567 variant (protein)
chain: MNIILEILLLLITIIYSYLESLVKFFIPQRRKSVAGEIVLITGAGHGIGRQTTYEFAKRQSILVLWDINKRGVEETAAECRKLGVTAHAYVVDCSNREEIYRSLNQVKKEVGDVTIVVNNAGTVYPADLLSTKDEEITKTFEVNILGHFWITKALLPSMMERNHGHIVTVASVCGHEGIPYLIPYCSSKFAAVGFHRGLTSELQALGKTGIKTSCLCPVFVNTGFTKNPSTRLWPVLETDEVVRSLIDGILTNKKMIFVPSYINIFLRLQKVSS
modifications: homo sapien
notes: prematurely truncated protein encoded by Transcript D of the rs72613567 variant
[4]; recombinant protein, NAD+ cofactor
  activity towards estradiol in vitro compared to HSD17B13 isoform A: greatly reduced activity towards estradiol
[4]; substrates 17-beta estradiol, leukotriene B4 (LTB4), 13(S)-HODE
  enzymatic activity of the corresponding values for isoform A: < 10%
[3]
  conversion of estradiol (substrate) to estrone (product) measured in the culture media: did not show much conversion; also recorded: greatly reduced activity towards estradiol
[1]
  intracellular triglyceride content of overexpressing cell lines versus GFP control: No differences in intracellular triglyceride content
